Reference: patent US20170119790A1, “Agents, Uses and Methods” (CYTOGUIDE A/S, priority 2009, published 2017)

Columns and labels:
[1] = target: T1, CD163 on peripheral blood dendritic cells (Homo sapiens, UniProt Q86VB7); experiment: Flow cytometry of CD163 expression on peripheral blood dendritic cells; format: cell-based
T1 construct: Freshly drawn peripheral whole blood samples or PBMC; endogenous in cells; host or cells: human peripheral blood monocytes, blood dendritic cells, monocyte-derived macrophages (healthy donors, buffy coats)
T1 sequence (Q86VB7 42-1156): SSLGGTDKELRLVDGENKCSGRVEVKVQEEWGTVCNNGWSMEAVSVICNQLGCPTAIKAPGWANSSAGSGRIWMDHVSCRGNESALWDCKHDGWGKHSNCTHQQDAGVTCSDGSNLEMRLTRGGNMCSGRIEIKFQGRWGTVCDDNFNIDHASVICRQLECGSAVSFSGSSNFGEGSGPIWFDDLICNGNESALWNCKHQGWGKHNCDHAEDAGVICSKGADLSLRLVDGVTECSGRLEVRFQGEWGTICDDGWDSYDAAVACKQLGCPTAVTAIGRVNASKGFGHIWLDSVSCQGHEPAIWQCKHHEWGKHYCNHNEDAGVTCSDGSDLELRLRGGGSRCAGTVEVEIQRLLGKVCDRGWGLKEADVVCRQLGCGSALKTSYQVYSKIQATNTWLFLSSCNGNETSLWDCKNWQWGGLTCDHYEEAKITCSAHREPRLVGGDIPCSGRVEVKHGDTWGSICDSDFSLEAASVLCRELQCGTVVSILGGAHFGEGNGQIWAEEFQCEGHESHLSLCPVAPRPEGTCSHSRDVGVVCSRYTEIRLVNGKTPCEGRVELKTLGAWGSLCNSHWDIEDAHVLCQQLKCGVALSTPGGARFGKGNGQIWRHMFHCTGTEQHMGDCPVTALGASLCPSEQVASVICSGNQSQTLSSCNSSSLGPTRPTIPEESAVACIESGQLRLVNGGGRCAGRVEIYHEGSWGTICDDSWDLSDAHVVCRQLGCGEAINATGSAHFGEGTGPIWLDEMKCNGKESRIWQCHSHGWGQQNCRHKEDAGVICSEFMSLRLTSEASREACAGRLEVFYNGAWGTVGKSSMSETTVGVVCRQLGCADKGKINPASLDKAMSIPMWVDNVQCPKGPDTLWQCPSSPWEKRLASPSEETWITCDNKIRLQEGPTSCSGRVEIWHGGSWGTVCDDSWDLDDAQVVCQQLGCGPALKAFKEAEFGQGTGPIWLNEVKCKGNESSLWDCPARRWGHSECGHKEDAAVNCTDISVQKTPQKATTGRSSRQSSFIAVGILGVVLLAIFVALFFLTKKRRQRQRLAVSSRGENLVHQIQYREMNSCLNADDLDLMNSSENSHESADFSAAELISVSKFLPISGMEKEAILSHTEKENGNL
Source text: Freshly drawn peripheral whole blood samples (approx. 3×10^6 cells) were stained with isotype-matched control antibody (Mouse IgG1 PE, k isotype control, MOPC-21, BD Pharmingen™, San Diego, Calif., USA) or a relevant antibody (anti-CD3 FITC, UCHT1, BD Biosciences, San Diego, Calif., USA; anti-CD11c FITC, KB90, DAKO A/S, Glostrup, Denmark; anti-CD14 FITC, RM052, 10Tests®, Beckman and Coulter, Marseille, France; anti-CD16 FITC, 3G8, BD Biosciences, San Diego, Calif., USA; anti-CD19 FITC, SJ25C1, BD Biosciences, San Diego, Calif., USA; anti-CD20 FITC, CAT 13.6E12, Diatec.com A/S, Oslo, Norway; anti-CD56 FITC, NCAM16.2, BD Biosciences, San Diego, Calif., USA; anti-CD91 FITC, A2MR-a2, BD Biosciences, San Diego, Calif.; anti-HLA-DR FITC, EDU-1, Diatec.com A/S, Oslo, Norway; anti-CD163 PE, MAC2-158, IQ Products, Groningen, The Netherlands; anti-CD163 PE, GHI/61, BD Biosciences, CA, USA; anti-ILT3/CD85k PE-Cy5, ZM3.8, IOTests®, Beckman and Coulter, Marseille, France; anti-HLA-DR PerCP, L234, BD Biosciences, San Diego, Calif.; anti-CD4 APC, EDU-2, Diatec.com A/S, Oslo, Norway; anti-CD14 APC, 18D11, Diatec.com A/S, Oslo, Norway) for 15 minutes at room temperature in the dark. […] For CD163 density quantitation, flow cytometric estimation of antibodies bound/cell (ABCs) was performed using Quantibrite PE beads (Becton Dickinson, San Jose, Calif., USA) as recommended by the manufacturer. […]

mouse CD163 1-5 wt = target: T2, mouse CD163 1-5 wt (Mus musculus, UniProt Q2VLH6); experiment: Western blotting of mouse CD163 and knock in mutant; format: binding
T2 construct: CD163 domain 1-5 was used for expression of mouse CD163 domain 1-5/V5/His; made in house; host or cells: Lenti-X 293T, transient; captured from supernatant on Ni-NTA
T2 sequence (Q2VLH6 with tags, fused parts or gaps): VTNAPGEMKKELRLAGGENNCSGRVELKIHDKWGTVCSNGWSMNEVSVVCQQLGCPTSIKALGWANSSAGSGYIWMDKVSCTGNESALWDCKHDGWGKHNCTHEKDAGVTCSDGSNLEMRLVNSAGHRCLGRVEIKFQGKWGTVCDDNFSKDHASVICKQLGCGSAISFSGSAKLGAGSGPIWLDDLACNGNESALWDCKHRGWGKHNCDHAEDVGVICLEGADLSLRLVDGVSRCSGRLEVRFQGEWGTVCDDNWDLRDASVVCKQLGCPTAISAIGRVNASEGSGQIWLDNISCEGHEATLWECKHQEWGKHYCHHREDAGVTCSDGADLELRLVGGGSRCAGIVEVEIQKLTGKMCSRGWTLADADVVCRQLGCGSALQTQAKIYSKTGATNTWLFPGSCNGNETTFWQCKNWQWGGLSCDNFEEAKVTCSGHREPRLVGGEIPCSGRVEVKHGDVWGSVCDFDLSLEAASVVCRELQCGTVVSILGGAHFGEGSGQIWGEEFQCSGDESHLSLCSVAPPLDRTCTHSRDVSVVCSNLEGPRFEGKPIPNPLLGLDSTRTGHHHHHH
Description: The mouse CD163 1-5 and the mouse CD163 domain 1 mutant were expressed transient in Lenti-X 293T cells as follows: 1.5 μg of the DNA was diluted in OptiCHOPro SFM (8 mM L-glutamine) to a total volume of 50 μl The DNA was gently mixed with 50 μl of OptiCHOPro SFM containing 1.5 μl Freestyle MAX transfection reagent (Invitrogen, Taastrup, Denmark). After 10 min of incubation at room temperature the complexes were added to 1×10^6 cells in 1 ml. Three days later, the cell supernatants were harvested by centrifugation.
Tris pH 8 buffer, and cell culture supernatants were added 60 μl of Ni-NTA His-bind resin slurry. After 1 hour shaking at 4° C. the supernatants were aspired and each of the purifications were eluted with 90 μl 50 mM Tris pH 8, 25 mM EDTA buffer.
90 μl of each of the eluates were added 30 μl of 4×LDS sample buffer. 20 μl samples of each supernatant and 8 μl SeeBlue plus2 prestained marker were loaded on NuPage 4-12% Bis-Tris-Gels (Invitrogen, Taastrup, Denmark) and the SDS-PAGEs were run with MOPS running buffer according to instructions of the manufacturer (200 V constant for 50 min). Blotting to PVDF membranes (Invitrogen, Taastrup, Denmark) was done on an iBLOT device according to instructions of the manufacturer. After blotting the membranes were washed briefly in 1×PBS 0.1% Tween and blocked for 30 min in 1×PBS 2% Tween at room temperature with shaking. […]

[2] = tested on: non-transfected Flp-In CHO cells; experiment: Cellular binding and uptake of 125I-labeled anti-CD163, control cells; format: cell-based, Chinese hamster; details: 125I-labelled mAb
Source text: Endocytosis of ^125I-labeled anti-CD163 was investigated in CD163 transfected Flp-In Chinese hamster ovary (CHO) cells and mock-transfected Flp-In as described (Madsen, M., Moller, H. J., Nielsen, M. J., Jacobsen, C., Graversen, J. H., van den Berg, T. and Moestrup, S. K. (2004) Molecular characterization of the haptoglobin.hemoglobin receptor CD163. Ligand binding properties of the scavenger receptor cysteine-rich domain region. J. Biol. Chem., 279, 51561-51567.)

B1: MAC2-158: anti-human CD163 murine mAb, binds SRCR domain 1, IQ Products; VH SEQ ID NO: 1, VL SEQ ID NO: 2 (antibody, V domains shown)
VH: DVQLQESGPGLVKPSQSLSLTCTVTGYSITSDYAWNWIRQFPGNKLEWMGYITYSGITNYNPSLKSQISITRDTSKNQFFLQLNSVTTEDTATYYCVSGTYYFDYWGQGTTLTVSS
VL: SVVMTQTPKSLLISIGDRVTITCKASQSVSSDVAWFQQKPGQSPKPLIYYASNRYTGVPDRFTGSGYGTDFTFTISSVQAEDLAVYFCGQDYTSPRTFGGGTKLEIKRA
modifications: Mac2-158 VH; Mac2-158 VL
[1]; CD14-ILT3+HLA-DR+ cells, whole blood
  fraction of peripheral blood dendritic cells recognized (CD163 expressing): 32.3%
[1]; peripheral blood dendritic cells
  MFI, reflecting the amount of CD163 receptors per cell: 107.5
Mouse CD163 1-5 wt
  binding in western blot: did not bind
[2]
  percentage of cell-associated radioactivity reached: 1.37%
